Columns and labels:
[1] = test system: multiple additional solid tumor indications; details: cited from earlier work
[2] = molecular target: T1, Human EGFR (recombinant, soluble monomeric) (human, UniProt P00533 25-645); test: SPR, Biacore T200, antibody captured on anti-human IgG, soluble monomeric antigen as analyte, 25 C
T1 construct: also called EGFR antigen

[3] = molecular target: T2, Cynomolgus monkey EGFR (recombinant, soluble monomeric) (cynomolgus monkey, UniProt P55245 25-645 (rhesus entry)); test: as above
T2 construct: also called cyno EGFR

[4] = molecular target: T3, Mouse EGFR (recombinant, soluble monomeric) (mouse, UniProt Q01279 25-647); test: as above
T3 construct: also called murine EGFR

Mouse cMET (recombinant) = Mouse cMET (recombinant) (mouse, UniProt P16056 25-929, limits assumed); test: ELISA: antigen coated at 1 ug/mL, antibody dilution series, goat anti-human Fab-HRP, A450; panel Mouse cMET
HER2 = molecular target: T4, HER2 (UniProt P04626 23-652, limits assumed); test: ELISA: antigen coated at 1 ug/mL, antibody dilution series, goat anti-human Fab-HRP, A450; panel Human HER2
T4 construct: also called EGFR HER family protein HER2

HER3 = molecular target: T5, HER3 (UniProt P21860 20-643, limits assumed); test: ELISA: antigen coated at 1 ug/mL, antibody dilution series, goat anti-human Fab-HRP, A450; panel Human HER3
T5 construct: also called EGFR HER family protein HER3

HER4 = molecular target: T6, HER4 (UniProt Q15303 26-649, limits assumed); test: ELISA: antigen coated at 1 ug/mL, antibody dilution series, goat anti-human Fab-HRP, A450; panel Human HER4
T6 construct: also called EGFR HER family protein HER4
T6 sequence (looked up): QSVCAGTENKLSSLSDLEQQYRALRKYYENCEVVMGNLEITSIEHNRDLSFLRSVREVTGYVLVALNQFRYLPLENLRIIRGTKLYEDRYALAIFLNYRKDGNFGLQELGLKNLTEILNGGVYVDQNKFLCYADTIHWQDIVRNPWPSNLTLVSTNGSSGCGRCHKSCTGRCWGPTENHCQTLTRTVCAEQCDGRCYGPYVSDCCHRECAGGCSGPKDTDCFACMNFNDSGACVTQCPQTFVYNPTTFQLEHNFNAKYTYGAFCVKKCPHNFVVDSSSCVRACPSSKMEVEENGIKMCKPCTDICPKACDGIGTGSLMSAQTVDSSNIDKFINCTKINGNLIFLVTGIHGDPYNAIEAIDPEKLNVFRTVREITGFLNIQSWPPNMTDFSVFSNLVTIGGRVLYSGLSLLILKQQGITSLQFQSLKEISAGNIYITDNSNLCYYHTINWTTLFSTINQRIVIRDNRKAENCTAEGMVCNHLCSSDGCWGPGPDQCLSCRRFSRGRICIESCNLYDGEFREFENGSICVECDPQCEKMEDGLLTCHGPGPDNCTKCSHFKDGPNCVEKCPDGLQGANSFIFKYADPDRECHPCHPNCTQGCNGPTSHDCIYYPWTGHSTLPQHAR

Semaphorin 3a = molecular target: T7, Semaphorin 3a (UniProt Q14563 21-771, limits assumed); test: ELISA: antigen coated at 1 ug/mL, antibody dilution series, goat anti-human Fab-HRP, A450; panel Human Sema3a
T7 construct: also called Sema 3a
T7 sequence (looked up): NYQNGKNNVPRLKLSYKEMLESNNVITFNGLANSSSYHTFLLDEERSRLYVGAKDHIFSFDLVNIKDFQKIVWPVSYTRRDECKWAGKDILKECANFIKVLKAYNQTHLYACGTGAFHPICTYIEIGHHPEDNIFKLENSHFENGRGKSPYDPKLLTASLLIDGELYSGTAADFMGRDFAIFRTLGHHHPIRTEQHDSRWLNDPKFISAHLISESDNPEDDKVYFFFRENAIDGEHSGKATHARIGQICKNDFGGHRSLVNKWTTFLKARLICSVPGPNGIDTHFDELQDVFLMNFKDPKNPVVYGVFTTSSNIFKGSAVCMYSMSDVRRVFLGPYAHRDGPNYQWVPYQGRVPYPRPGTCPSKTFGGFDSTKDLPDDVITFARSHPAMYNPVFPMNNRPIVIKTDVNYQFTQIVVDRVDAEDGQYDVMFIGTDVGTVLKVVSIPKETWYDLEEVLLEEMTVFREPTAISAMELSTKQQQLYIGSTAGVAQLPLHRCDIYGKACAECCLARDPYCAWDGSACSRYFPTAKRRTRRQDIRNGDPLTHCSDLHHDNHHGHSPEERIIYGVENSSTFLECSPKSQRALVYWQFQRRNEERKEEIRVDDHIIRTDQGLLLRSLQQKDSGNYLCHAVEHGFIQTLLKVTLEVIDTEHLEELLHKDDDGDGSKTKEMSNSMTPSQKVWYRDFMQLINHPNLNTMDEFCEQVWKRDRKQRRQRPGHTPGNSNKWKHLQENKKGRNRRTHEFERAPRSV

[5] = molecular target: T8, Cynomolgus monkey cMET (recombinant, soluble monomeric) (cynomolgus monkey, UniProt A0M8R7 25-932 (Papio anubis entry)); test: ELISA: antigen coated at 1 ug/mL, antibody dilution series, goat anti-human Fab-HRP, A450; panel Cynomolgus cMET
T8 construct: also called cyno cMET

Ron (CD136) = Ron (CD136) (UniProt Q04912 25-957, limits assumed); test: ELISA: antigen coated at 1 ug/mL, antibody dilution series, goat anti-human Fab-HRP, A450; panel Human Ron (CD136)
[6] = molecular target: T9, Human cMET (recombinant, soluble monomeric) (human, UniProt P08581 25-932); test: Octet biolayer interferometry, antigen capture format: His-tagged human cMET on NI-NTA sensors, then antibody (66 nM), then human EGFR (500 nM)
T9 construct: in the HTRF assay it is called the human cMET receptor; also called His-tagged cMET antigen

Cynomolgus monkey EGFR [7] = test: SPR (BIAcore T200) antibody capture kinetics; assay type: binding; details: 25° C.
Protocol: (§1) Mouse anti-human IgG was immobilized on a CM4 sensor chip with a final surface density of ˜2000 resonance units (RUs). A reference flow cell surface was also prepared on this sensor chip using identical immobilization protocol. Test and control article antibodies were prepared at 5-20 nM in instrument buffer (HBS-EP buffer; 0.01M HEPES, pH 7.4, 0.15M NaCl, 3 mM EDTA, and 0.005% P-20), along with 3-fold serial dilutions of purified EGFR (0.27-200 nM human, 0.4-900 nM cyno, and 4-1000 nM murine) or cMET proteins (0.27 to 66 nM human and 0.27-22 nM cyno) in instrument buffer. A sequential approach was utilized for kinetic measurements. Antibodies were first injected over the capture surface, at a flow rate of 10 μL/minute. Once the binding of the captured antibody stabilized, a single concentration of the analyte was injected over both capture and reference surfaces, at a flow rate of 75 μL/minute. The resulting binding response curves yielded the association phase data. Following the injection of analyte, the flow was then switched back to instrument buffer for 15 minutes to permit the collection of dissociation phase data, followed by a 1-minute pulse of 10 mM glycine, pH 1.5, to regenerate the antibody-captured surface on the chip. Binding responses against test and control article antibodies were recorded from duplicate injections of each concentration of analyte. In addition, several buffer injections were interspersed throughout the injection series. Select buffer injections were used along with the reference cell responses to correct the raw data sets for injection artifacts and/or nonspecific binding interactions, commonly referred to as “double referencing”. Corrected binding data were globally fit to a 1:1 binding model (Biacore T200 Evaluation software 2.0, GE Healthcare, Pittsburgh, PA).

Human EGFR [8] = molecular target: T10, Human EGFR (Homo sapiens, UniProt P00533); test: SPR (BIAcore T200) antibody capture kinetics; assay type: binding; details: 25° C.
Protocol: as §1

Mouse EGFR [9] = molecular target: T11, Mouse EGFR (Mus musculus, UniProt Q01279); test: SPR (BIAcore T200) antibody capture kinetics; assay type: binding; details: 25° C.
T11 construct: purchased SinoBiological 51091-M08H
Protocol: as §1

Cynomolgus monkey EGFR [10] = test: ELISA species cross reactivity; assay type: binding
Protocol: (§2) Specificity for EGFR and cMET species paralogs and closely related family members was determined by ELISA. Briefly, antigen solutions were prepared in PBS at 1 μg/mL and 50 microliters was coated onto half area ELISA assay plates. Plates were washed and blocked with 1% BSA in PBS containing 0.005% Tween-20 (PBS-T) for one hour at room temperature. The wells were washed 4 times in PBS-T. As set out in FIG. 3, the primary antibodies used where: R374 (a non-binding IgG1 isotype control antibody), B09 (anti-cMET antibody), QD6 (anti-EGFR antibody), RAA22 (anti-EGFR antibody), QD6/B09 (bispecific EGFR/c-MET DuetMAb), RAA22/B09 (bispecific EGFR/c-MET DuetMAb), PaniX (anti-EGFR antibody), MetMab (anti-cMET antibody) and Mab11311 (anti-HER4 antibody). Wells were incubated with 50 microliters of the indicated primary antibodies diluted in PBS-T in a 1:3 dilution series, starting at 10 μg/mL and ending at 0.002 μg/mL, except for the HER4 binding mAb control, MAB1131, for which the series started at 1 μg/mL. The wells were washed 4 times in PBS-T, then 50 μl of goat anti-human Fab HRP-labeled secondary antibody, diluted 1:5000 in PBS-T, was added to each well and incubated for one hour at room temperature. […] 50 microliters of TMB stop solution was added to all wells and the absorbance was read at 450 nm on a SpectraMax M5 microplate reader. Data were analyzed in the SoftMax Pro 5 software and plotted using GraphPad Prism 7 graphing software.
(§3) To determine the species cross reactivity, ELISA assays were carried out as described above. […] There was no detectable binding of any of the antibodies to mouse cMET.

Human EGFR [11] = molecular target: T10, Human EGFR; test: ELISA species cross reactivity; assay type: binding; details: antibody 10 to 0.002 μg/mL
Protocol: as §2, §3

Mouse EGFR [12] = molecular target: T11, Mouse EGFR; test: ELISA species cross reactivity; assay type: binding
Protocol: as §2, §3

T8 sequence (A0M8R7 25-932 S170N/I621T): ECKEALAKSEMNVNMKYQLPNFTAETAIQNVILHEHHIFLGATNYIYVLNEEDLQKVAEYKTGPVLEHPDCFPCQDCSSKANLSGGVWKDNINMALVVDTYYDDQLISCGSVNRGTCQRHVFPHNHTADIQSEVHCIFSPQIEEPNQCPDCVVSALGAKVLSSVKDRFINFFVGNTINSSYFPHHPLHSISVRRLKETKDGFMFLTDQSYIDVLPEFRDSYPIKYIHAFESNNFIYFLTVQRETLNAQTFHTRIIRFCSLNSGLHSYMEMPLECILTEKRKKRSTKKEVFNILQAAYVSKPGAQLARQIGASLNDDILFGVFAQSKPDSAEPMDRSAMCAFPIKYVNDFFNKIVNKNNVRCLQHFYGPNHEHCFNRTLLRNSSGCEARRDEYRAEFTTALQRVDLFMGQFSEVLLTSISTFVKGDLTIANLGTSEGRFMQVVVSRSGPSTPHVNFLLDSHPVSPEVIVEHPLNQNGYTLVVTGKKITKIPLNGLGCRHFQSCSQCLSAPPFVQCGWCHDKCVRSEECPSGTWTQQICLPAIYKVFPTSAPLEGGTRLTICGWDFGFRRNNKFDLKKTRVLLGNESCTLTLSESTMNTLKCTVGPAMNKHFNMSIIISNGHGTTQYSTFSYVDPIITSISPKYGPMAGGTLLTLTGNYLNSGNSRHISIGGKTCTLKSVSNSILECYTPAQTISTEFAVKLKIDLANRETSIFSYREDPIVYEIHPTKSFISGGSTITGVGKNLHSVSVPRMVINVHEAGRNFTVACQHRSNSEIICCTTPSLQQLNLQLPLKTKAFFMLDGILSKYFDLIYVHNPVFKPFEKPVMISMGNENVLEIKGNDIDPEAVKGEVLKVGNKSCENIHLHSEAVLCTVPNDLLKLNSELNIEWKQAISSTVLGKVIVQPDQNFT
Sequence of Mouse cMET (recombinant) (P16056 25-929 limits assumed): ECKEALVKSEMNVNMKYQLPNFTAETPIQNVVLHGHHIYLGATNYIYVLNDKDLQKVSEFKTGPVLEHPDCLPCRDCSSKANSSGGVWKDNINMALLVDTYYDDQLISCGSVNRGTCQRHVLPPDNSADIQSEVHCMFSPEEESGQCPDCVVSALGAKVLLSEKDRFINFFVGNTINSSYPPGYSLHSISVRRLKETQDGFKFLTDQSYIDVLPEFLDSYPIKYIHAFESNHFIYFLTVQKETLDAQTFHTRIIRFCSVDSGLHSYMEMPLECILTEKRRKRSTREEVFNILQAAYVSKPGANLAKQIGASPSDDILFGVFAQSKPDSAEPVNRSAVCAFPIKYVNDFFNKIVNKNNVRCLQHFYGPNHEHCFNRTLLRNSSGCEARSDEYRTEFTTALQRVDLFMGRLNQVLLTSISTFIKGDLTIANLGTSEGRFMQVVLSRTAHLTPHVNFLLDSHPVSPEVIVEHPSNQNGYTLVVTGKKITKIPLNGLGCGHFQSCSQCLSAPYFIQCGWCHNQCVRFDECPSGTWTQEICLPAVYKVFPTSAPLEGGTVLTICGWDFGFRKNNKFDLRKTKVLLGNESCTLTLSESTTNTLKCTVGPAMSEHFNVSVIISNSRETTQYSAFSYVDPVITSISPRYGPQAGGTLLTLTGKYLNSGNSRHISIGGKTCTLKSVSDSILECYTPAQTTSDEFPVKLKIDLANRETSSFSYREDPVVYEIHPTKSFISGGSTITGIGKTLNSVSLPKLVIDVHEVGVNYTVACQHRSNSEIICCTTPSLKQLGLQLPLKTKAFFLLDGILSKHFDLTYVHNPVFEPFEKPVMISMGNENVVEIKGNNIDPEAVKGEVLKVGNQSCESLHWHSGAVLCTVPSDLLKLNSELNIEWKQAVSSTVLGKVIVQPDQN
T9 sequence (P08581 25-932): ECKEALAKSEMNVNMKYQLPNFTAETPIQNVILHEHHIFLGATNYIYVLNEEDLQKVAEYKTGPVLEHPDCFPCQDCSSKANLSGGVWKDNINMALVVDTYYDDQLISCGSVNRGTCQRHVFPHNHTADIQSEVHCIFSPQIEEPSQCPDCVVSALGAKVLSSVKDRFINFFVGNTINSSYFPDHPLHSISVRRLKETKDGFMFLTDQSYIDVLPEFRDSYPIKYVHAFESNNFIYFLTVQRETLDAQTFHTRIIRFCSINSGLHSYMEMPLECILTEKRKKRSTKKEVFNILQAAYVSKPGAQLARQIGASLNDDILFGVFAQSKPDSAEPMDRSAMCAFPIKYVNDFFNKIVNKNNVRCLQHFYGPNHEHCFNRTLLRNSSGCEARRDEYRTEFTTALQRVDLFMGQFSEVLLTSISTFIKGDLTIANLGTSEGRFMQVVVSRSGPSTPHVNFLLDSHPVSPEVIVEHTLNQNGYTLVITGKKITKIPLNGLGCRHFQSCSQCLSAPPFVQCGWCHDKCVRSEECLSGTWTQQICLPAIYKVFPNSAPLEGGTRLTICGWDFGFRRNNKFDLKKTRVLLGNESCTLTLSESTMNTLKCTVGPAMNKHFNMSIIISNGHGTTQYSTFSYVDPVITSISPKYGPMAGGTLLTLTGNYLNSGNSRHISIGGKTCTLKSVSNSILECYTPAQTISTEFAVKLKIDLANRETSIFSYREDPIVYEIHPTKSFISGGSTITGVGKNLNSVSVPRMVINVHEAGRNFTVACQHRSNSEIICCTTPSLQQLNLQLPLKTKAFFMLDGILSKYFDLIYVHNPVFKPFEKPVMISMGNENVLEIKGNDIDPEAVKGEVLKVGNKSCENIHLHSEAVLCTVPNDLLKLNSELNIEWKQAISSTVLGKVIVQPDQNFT

## ABT-414
[1]; Phase II trials, tolerated doses
  efficacy: limited efficacy at tolerated doses
[1]; treated patients
  ocular toxicities: concerning ocular toxicities were frequently observed in treated patients

B1: QD6 IgG (antibody, V domains shown)
VH: QVQLVQSGAEVKKPGSSVKVSCKASGGTFSDNDFSWVRQAPGQGLEWMGAIVAVVRTETYAQKFQDRVKITADISTRTTYMELSSLRSEDTAVYYCARRLMSAISGPGAPLLMWGQGTLVTVSS
VL: QSALTQPRSVSGSPGQSVTISCTGTSSDVGGYNYVSWYQQHPGKAPKLMIYDVSERPSGVPDRFSGSKSGNTASLTISGLQAEDEADYYCFSYTSSDTLEIFGGGTKLTVL
notes: also called anti-EGFR antibody clone QD6
[2]
  Kd: 2 nM
  koff: 0.000292 s⁻¹
  kon: 148000 M⁻¹ s⁻¹
[3]
  Kd: 2.5 nM
  koff: 0.000288 s⁻¹
  kon: 114000 M⁻¹ s⁻¹
[4]
  Kd: 4.4 nM
  koff: 0.000735 s⁻¹
  kon: 167000 M⁻¹ s⁻¹
Mouse cMET (recombinant)
  binding result: no binding (tested: 10 ug/ml)
HER2
  binding result: no binding (tested: 10 ug/ml)
HER3
  binding result: no binding (tested: 10 ug/ml)
HER4
  binding result: no binding (tested: 10 ug/ml)
Semaphorin 3a
  binding result: no binding (tested: 10 ug/ml)
[5]
  binding result: no binding (tested: 10 ug/ml)
Ron (CD136)
  binding result: no binding (tested: 10 ug/ml)
[6]
  binding result: no binding (tested: 66 nM)

B2: QD6 IgG: high affinity anti-EGFR IgG1 antibody clone, VH SEQ ID NO: 18, VL SEQ ID NO: 22 (antibody, V domains shown)
VH: QVQLVQSGAEVKKPGSSVKVSCKASGGTFSDNDFSWVRQAPGQGLEWMGAIVAVVRTETYAQKFQDRVKITADISTRTTYMELSSLRSEDTAVYYCARRLMSAISGPGAPLLMWGQGTLVTVSS
VL: QSALTQPRSVSGSPGQSVTISCTGTSSDVGGYNYVSWYQQHPGKAPKLMIYDVSERPSGVPDRFSGSKSGNTASLTISGLQAEDEADYYCFSYTSSDTLEIFGGGTKLTVL
Cynomolgus monkey EGFR [7]
  Koff: 0.000288 s⁻¹
  Kon: 114000 M⁻¹ s⁻¹
Human EGFR [8]
  Koff: 0.000292 s⁻¹
Human EGFR [8]; 1:1 binding model
  Kon: 148000 M⁻¹ s⁻¹
Mouse EGFR [9]
  Koff: 0.000735 s⁻¹
  Kon: 167000 M⁻¹ s⁻¹
Cynomolgus monkey EGFR [10]
  ELISA binding: gave robust signals
Human EGFR [11]
  ELISA binding: gave robust signals
Mouse EGFR [12]
  ELISA binding: gave robust signals

Source: US20260166140A1, “Combinations Involving Epidermal Growth Factor Receptor Tyrosine Kinase Inhibitors For the Treatment of Cancer” (AstraZeneca AB, priority 2022, published 2026)
